The values below come from patent US20220135654A1 (GOVERNMENT OF THE UNITED STATES OF AMERICA AS REPRESENTED …, published 2022).

The target in test [1] is SARS-CoV-2 receptor-binding domain (SARS-CoV-2, UniProt P0DTC2 319-541). As to the kind of experiment: direct-binding MagPlex assay, biotinylated sdAb on RBD-coated microspheres.
Test [2] deals with SARS-CoV-2 nucleocapsid protein (recombinant) (SARS-CoV-2, UniProt P0DTC9 1-419). As to the kind of experiment: SPR (ProteOn XPR36), N immobilised on chip, sdAb in flow, 25 C.

B1: sdAb clone B6 (VHH)
VHH: EVQLQASGGGLVQAGDSLRLSCVAVSGRTISTFAMGWFRQAPGKEREFVATINWSGSSARYADPVEGRFTISRDDAKNTVYLEMSSLKPGDSAVYYCASGRYLGGITSYSQGDFAPWGQGTQVTVSS
notes: also called Bt-B6
On to B1, for which, in test [1], the binding result was “no binding”. In test [2], the Kd turned out to be 1.6 nM, the koff turned out to be 0.0003 s⁻¹ and the on-rate (kon) amounted to 190000 M⁻¹ s⁻¹.

B2: sdAb clone A9 (VHH)
VHH: EVQLQASGGGLVQAGESLRLSCVVSGGAFRIMDMGWFRQVPGKQREVVGVISSGGYTNYADSVKGRFTISRDNAKRTVYLHMNSLKPEDTAVYYCNIIPKSDQGAVNTWGKGTLVSVSS
Consider B2, for which the binding result in test [1] is “no binding”.

B3: sdAb clone E10 (VHH)
VHH: DVQLQASGGGLVQAGGSLRLSCAASARTFYTMGWFRQVLGKDREFVGAIRWGVYATTRYADSVKGRFSISRDDATNTVALQMNSLKPEDTAVYYCAARAGPLGFELSATSSAEYDYWGQGTQVTVSS
Take B3: the binding result in test [1] is given as “no binding”. Moreover, in test [2], the dissociation constant Kd came to 14 nM, the dissociation rate constant (koff) is 0.00095 s⁻¹ and the association rate constant (kon) amounted to 69000 M⁻¹ s⁻¹.

The Kd is the constant that tells how readily two partners part at equilibrium. One may read the koff as the rate constant with which the complex falls apart. A word on the kon: it is a measure of how fast the partners come together.
